Test results as given in IntAct's records for PubMed 29610859.

Molecular target: ubql1_human UBQLN1 (UniProt Q9UMX0)
Sequence (Q9UMX0 whole entry): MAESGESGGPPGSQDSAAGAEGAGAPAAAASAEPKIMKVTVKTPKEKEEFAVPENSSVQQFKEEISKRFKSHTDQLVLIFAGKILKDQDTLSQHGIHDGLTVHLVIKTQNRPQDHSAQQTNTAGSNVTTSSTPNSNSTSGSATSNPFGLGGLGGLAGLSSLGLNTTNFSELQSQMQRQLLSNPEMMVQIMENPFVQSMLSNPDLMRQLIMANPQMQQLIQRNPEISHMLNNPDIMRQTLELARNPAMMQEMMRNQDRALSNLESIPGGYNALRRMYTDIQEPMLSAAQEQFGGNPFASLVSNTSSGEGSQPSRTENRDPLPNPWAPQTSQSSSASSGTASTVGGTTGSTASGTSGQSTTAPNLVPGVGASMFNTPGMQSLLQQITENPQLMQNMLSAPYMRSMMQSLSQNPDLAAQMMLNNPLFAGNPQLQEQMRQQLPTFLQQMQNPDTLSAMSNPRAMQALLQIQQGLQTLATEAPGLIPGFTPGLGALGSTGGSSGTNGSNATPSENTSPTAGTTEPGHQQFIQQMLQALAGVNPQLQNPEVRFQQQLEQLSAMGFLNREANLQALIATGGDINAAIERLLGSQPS

Substance: Cytochrome c oxidase subunit 1 (Homo sapiens) (from UniProt P00395) V83I
- effect of a mutation on the interaction: with no effect
